In the supplement of paper PMC9876800:

System: peptide library, one residue held at a place counted from the S/T acceptor
Assay: relative phosphorylation of the sub-library (ratio to the mean residue at this position); higher = residue favoured
Procedure, shortened: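 Purified recombinant kinases were reacted in 384-well plates with biotinylated degenerate peptide sub-libraries, each having one residue fixed at one position around a central Ser/Thr. The reaction mix contained 50 μM peptide plus 50 μM ATP spiked with γ-32P-ATP and ran for 90 min under kinase-specific conditions. Relative sub-library phosphorylation, taken from densitometry of phosphorimaged streptavidin membrane spots, is a ratio to the mean residue at that position.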

RPS6KA5, construct: Full length, human (from UniProt O75582)
relative phosphorylation
Details | M fixed | N fixed | P fixed | Q fixed | R fixed | V fixed | W fixed | Y fixed | pThr fixed | pTyr fixed
at +1 | – | 0.976 | 0.292 | 1.19 | 0.539 | 1.21 | 1.21 | 1.25 | 1.64 | 1.68
at +2 | – | 1.27 | 0.581 | 0.734 | 0.52 | 0.81 | 1.03 | 1.28 | 1.88 | 1.25
at +3 | – | 0.92 | 0.98 | 0.989 | 0.574 | 0.714 | 1.33 | 1.16 | 1.62 | 1.53
at +4 | – | 1.2 | 1.5 | 1.12 | 0.551 | 0.721 | 0.959 | 0.912 | 2.88 | 1.57
at -1 | 1.04 | 1.42 | 1.63 | 1.15 | 1.5 | 0.466 | 0.743 | 1 | 0.451 | 0.898
at -2 | 0.445 | 0.693 | 0.367 | 0.843 | 7.44 | 0.318 | 0.425 | 0.4 | 0.325 | 0.392
at -3 | 0.39 | 0.51 | 0.588 | 0.666 | 8.25 | 0.282 | 0.709 | 0.486 | 0.406 | 0.539
at -4 | 1.07 | 0.909 | 1.1 | 0.915 | 2.04 | 0.663 | 0.86 | 0.952 | 0.697 | 0.698
at -5 | 0.962 | 0.81 | 0.923 | 0.774 | 2.26 | 0.775 | 1.2 | 0.871 | 0.68 | 0.747
